Measured values taken from the supplement of paper PMC9732359.
± gives the uncertainty stated by the source.

Test: protein stability index of a GFP-peptide fusion (yeast GPS) (PSI 1-4); higher = more stable; sorted into four equal gates, so the index is relative within each strain
How it was run: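 Plasmids in a pooled yeast library fused tiled 17-residue yeast protein peptides downstream of GFP and also expressed Cherry. Mid-log cultures grown without leucine were sorted into four equal gates by GFP/Cherry fluorescence ratio. Each gate's plasmids were PCR-amplified and Illumina-sequenced, and reads were matched to strains by barcodes. The protein stability index is derived by multiplying each gate's read frequency by its gate number and summing the results.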

Sequence | protein stability index (doa10∆) | protein stability index (pdr5∆) | protein stability index (ubr1∆) | protein stability index (san1∆)
QIIRLFYSKNRLLITGT [ISW2] | 2.55 ± 0.23 | 1.56 ± 0.14 |  | 
MAQENSMERKVQGAAPW [MCD1] | 3.35 ± 0.26 | 2.92 ± 0.11 |  | 
TFVVEQLIKQSIKNNVA [SNU114] |  |  | 2.38 ± 0.27 | 
HANAAAVYFADTSGLKI [SIN4] | 2.37 ± 0.067 | 2.56 ± 0.065 | 2.49 ± 0.053 | 2.23 ± 0.073
ERGLKVKEYQLRDRNFS [RPL11A] |  | 2.63 ± 0.2 |  | 
EENFEATRTLVASIQND [YCG1] | 3.03 ± 0.16 | 3.24 ± 0.11 | 2.71 ± 0.14 | 3 ± 0.14
KNKGLVVSPYDYNHKRV [DIB1] | 3.18 ± 0.12 | 3.19 ± 0.11 | 3.35 ± 0.17 | 3.02 ± 0.14
VVAAAEDDDNEQHEEKA [QCR6] | 2.87 ± 0.12 | 2.98 ± 0.15 | 3.07 ± 0.16 | 
STTTSVNGSTTAGVGST [SIN4] | 3.06 ± 0.044 | 2.99 ± 0.048 | 2.85 ± 0.036 | 3.07 ± 0.041
VLQEYRLTKQAFDWVLS [RPO21] | 2.59 ± 0.068 | 2.48 ± 0.069 | 2.78 ± 0.046 | 2.89 ± 0.073
FLKEVLSDLSSPVQDWN [YML103C/NUP188] | 2.92 ± 0.088 | 3.03 ± 0.097 | 2.96 ± 0.068 | 2.76 ± 0.11
DTVIIFDTDWNPHQDLQ [SNF2] | 2.93 ± 0.064 | 3.1 ± 0.05 | 2.84 ± 0.044 | 3.02 ± 0.033
SSETDDDHSQVINPQQL [DSN1] | 2.99 ± 0.048 | 3.13 ± 0.05 | 3.08 ± 0.048 | 2.99 ± 0.044
PDKDYLLSIPISCPLIG [FAS1] | 1.28 ± 0.19 | 1.64 ± 0.13 | 1.07 ± 0.077 | 1.25 ± 0.19
ATFLKDDLPYYVNALAD [QCR2] | 2.37 ± 0.047 | 2.21 ± 0.046 | 2.35 ± 0.032 | 2.27 ± 0.053
GMKVKADRDESSPYAAM [RPS14B] | 1.32 ± 0.067 | 1.09 ± 0.12 | 1.2 ± 0.089 | 1.14 ± 0.22
LIVDTHVQFRLGNVDAF [PRP8] | 2.75 ± 0.11 | 2 ± 0.11 | 1.72 ± 0.066 | 2.32 ± 0.13
EKGKKVSGFKDEVLETV [RPS1B] | 3.39 ± 0.11 | 2.82 ± 0.11 | 3.44 ± 0.084 | 3.48 ± 0.11
GQRDLDRIAAQTLEEDE [RPS19A] | 3.21 ± 0.087 | 3.21 ± 0.091 | 3.23 ± 0.097 | 3.29 ± 0.1
LKNKNFKCQEKDKGVYV [SIR2] | 3.53 ± 0.22 | 3.03 ± 0.093 | 3.27 ± 0.17 | 3.38 ± 0.077
DDVRRAAVIALGFVLLR [RPN2] | 1.86 ± 0.14 | 2.09 ± 0.075 | 1.8 ± 0.082 | 1.99 ± 0.13
ATGHRVLIFFQMTQIMD [SNF2] | 1.84 ± 0.082 | 2.51 ± 0.069 | 2.64 ± 0.13 | 2.72 ± 0.094
QDGGIMGSLINGITLAL [SKI6] | 3.11 ± 0.075 | 2.58 ± 0.058 | 2.66 ± 0.047 | 2.53 ± 0.057
MKDRLVEWNDQVEKLGK [RPN9] | 3.4 ± 0.13 | 3.06 ± 0.1 | 3.39 ± 0.085 | 3.36 ± 0.083
LHKLQRMRLRALETENM [GRR1] | 1.46 ± 0.046 | 1.92 ± 0.059 | 1.38 ± 0.032 | 1.47 ± 0.077
IRKLVKNGTIVKKAVTV [RPL19A] | 2.88 ± 0.17 | 3.08 ± 0.12 | 3.28 ± 0.072 | 3.15 ± 0.12
VKSLRQGKSKLIIIAAN [RPL30] | 2.03 ± 0.11 | 1.4 ± 0.11 | 1.96 ± 0.084 | 1.62 ± 0.22

Sequence | protein stability index (doa10∆) | protein stability index (pdr5∆) | protein stability index (ubr1∆) | protein stability index (san1∆)
RNEQVTIELKNGTTVWG [SMD1] | 1.23 ± 0.099 | 1.78 ± 0.11 | 1.16 ± 0.094 | 1.49 ± 0.24
SFLEGSKALNSILESSM [RGR1] | 1.81 ± 0.19 | 1.59 ± 0.1 | 2.02 ± 0.13 | 3.09 ± 0.21
YMFANLEFSIYHRLSNK [CSN12] | 2.13 ± 0.072 | 2.15 ± 0.076 | 2.25 ± 0.082 | 2.42 ± 0.11
PSMKKIKIEPSADDDVN [SIR3] | 1.95 ± 0.077 | 2.63 ± 0.1 | 2.73 ± 0.069 | 2.75 ± 0.091
CAINSKSRGSDLQYLGE [RRP6] | 3.11 ± 0.06 | 3.18 ± 0.068 | 3.2 ± 0.053 | 2.7 ± 0.069
EDAKYVINLKQIAKFVV [RPT1] | 1.61 ± 0.12 | 2.4 ± 0.2 | 1.96 ± 0.1 | 1.8 ± 0.21
LEILIVTKDGVRKEFYE [PRE7] | 2.91 ± 0.063 | 2.54 ± 0.049 | 2.92 ± 0.049 | 3.14 ± 0.043
VMEIGKDAEYLRNYLTP [PUP1] | 2.85 ± 0.076 | 2.85 ± 0.096 | 2.85 ± 0.12 | 2.77 ± 0.086
RMPIMLRSNKCILYDAD [RET1] | 1.23 ± 0.15 | 1.41 ± 0.11 | 1.77 ± 0.095 | 1.25 ± 0.25
ETSSDGSKSDGSAATSG [RPN1] | 3.39 ± 0.053 | 3.4 ± 0.055 | 3.3 ± 0.036 | 3.62 ± 0.048
TSIRLEGDELENKTKKD [SRB4] |  | 3.78 ± 0.26 |  | 
IGVIQLAHYVVTAKLLG [FAS1] | 1.51 ± 0.066 | 1.23 ± 0.04 | 1.35 ± 0.053 | 1.24 ± 0.09
NSITKDNIDYAPMRLAT [YJL039C/NUP192] | 2.58 ± 0.048 | 2.74 ± 0.038 | 2.57 ± 0.035 | 2.71 ± 0.05
KKITLQLLDTSNQRFKD [SIN4] | 3.02 ± 0.059 | 3.18 ± 0.067 | 2.88 ± 0.039 | 2.91 ± 0.048
FGKLLQAYQFLNTFGSK [ITC1] | 1.5 ± 0.064 | 1.26 ± 0.073 | 1.31 ± 0.094 | 1.19 ± 0.12
KNGNEYNEFLYSKAGRE [QCR8] | 2.77 ± 0.064 | 3 ± 0.081 | 2.75 ± 0.05 | 2.77 ± 0.06
ATSKTSEMLAKYSDILL [CDC53] | 3.11 ± 0.091 | 3.18 ± 0.099 | 3.07 ± 0.048 | 2.99 ± 0.1
AGNLITTPEINNFIVER [SRP68] | 2.79 ± 0.067 | 3.07 ± 0.061 | 2.82 ± 0.049 | 3.18 ± 0.061
DEIDAALDFRNVSIVAN [SMC4] | 1.75 ± 0.056 | 1.91 ± 0.05 | 1.54 ± 0.051 | 2.03 ± 0.076
NDPEILKKIASIPNLFP [SWI1] | 2.36 ± 0.049 | 2.19 ± 0.036 | 2.53 ± 0.035 | 2.36 ± 0.058
STPYLEILVEESGLRPV [PCI8] | 1.57 ± 0.048 | 1.55 ± 0.091 | 2.17 ± 0.091 | 1.54 ± 0.19
LALGCHFQDQKNKKIEV [POP7] | 2.65 ± 0.18 | 2.97 ± 0.16 | 2.29 ± 0.11 | 2.92 ± 0.12
TSLFHKFILSGFIFTSM [RRI2] | 2.09 ± 0.046 | 1.66 ± 0.03 | 1.52 ± 0.044 | 1.94 ± 0.07
HEAKERIRQKEVTAGEA [SNF6] | 3 ± 0.18 |  | 2.6 ± 0.074 | 2.67 ± 0.25
EQLSPQDVLQMLGRAGR [BRR2] | 3.14 ± 0.27 | 3.17 ± 0.18 | 3.36 ± 0.12 | 3.48 ± 0.15
VTQNVLGLEYIIRLLPI [SRB8] | 1.55 ± 0.12 | 1.68 ± 0.14 | 1.63 ± 0.21 | 1.39 ± 0.25
LAYSKIVNGQTFSYVDS [YMR129W/POM152] | 2.25 ± 0.045 | 2.64 ± 0.059 | 1.95 ± 0.042 | 2.53 ± 0.054
